T1: PfRipr5 (fragment of Ripr, positions 720-934 of SEQ ID NO: 17), made by wheat germ cell-free synthesis with … (UniProt O97302 720-934)
T1 chain: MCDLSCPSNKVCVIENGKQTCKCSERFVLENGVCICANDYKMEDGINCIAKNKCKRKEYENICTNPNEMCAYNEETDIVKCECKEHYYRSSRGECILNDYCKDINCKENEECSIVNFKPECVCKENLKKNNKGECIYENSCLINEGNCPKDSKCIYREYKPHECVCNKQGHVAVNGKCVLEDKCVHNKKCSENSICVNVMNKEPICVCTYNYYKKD


Experiments:
4B7 = experiment: SPR; U-value 95, negligible response
[1] = biological target: T1, PfRipr5 (fragment of Ripr, positions …); experiment: SPR

Row | Binder | Kd (4B7) | Kd [1]
1 | - (other) MCDLSCPSNKVCVIENGKQTCKCSERFVLENGVCICANDYKMEDGINCIAKNKCKRKEYENICTNPNEMCAYNEETDIVKCECKEHYYRSSRGECILNDYCKDINCKENEECSIVNFKPECVCKENLKKNNKGECIYENSCLINEGNCPKDSKCIYREYKPHECVCNKQGHVAVNGKCVLEDKCVHNKKCSENSICVNVMNKEPICVCTYNYYKKD | 0.0693 nM | –
2 | mouse monoclonal antibody 29B11 (antibody, V domains shown) VH: EVQLQQSGPELMKPGASVKISCKTSGYTFTEYTMHWVKQSHGKSLEWIGGIDPNNGITIYDQKFKGKATLTVDKSSSTAYMELRSLTSEDSAVYYCTRYYYGHYFDYWGQGTTLTVSS VL: DVLMTQTPLSLPVSLGDQASISCRSSQSIVHNNGHTYLEWYLQKPGQSPKLLIYKVSNRFSGVPDRFSGSGSGTDFTLKISRVEAEDLGIYYCFQDSHVPWTFGGGTKLEIKR | – | 2.19 nM
3 | mouse monoclonal antibody 26H4 (antibody, V domains shown) VH: EVQLQQSGPELVKPGASVKISCKTSGYTFTEYTMHWVKQSHGKSLEWIGGIDPNNGVTIYNQNFKGKATLTVDKSSSTAYMELRSLTSEDSAVYHCARYYYGHYFDYWGQGTTLTVSS VL: DVLMTQTPLSLPVSLGDQASISCRSSQSIVHSNGNTYLEWYLQKPGQSPKLLIYKVSNRFSGVPDRFSGSGSGTDFTLKISRVEAEDLGVYYCFQNSHVTWTFGGGTKLEIKR | – | 0.69 nM
